According to patent publication US5681719, “DNA encoding N- and C- terminally truncated colony stimulating factor-1 variants” (Chiron Corporation, dated 1997):
Several values for one entry are separate records, joined by “and”; a condition that tells them apart may be missing. Identical values can stand only once.

T1: specific receptors for CSF-1 on J774.2 mouse macrophage cells (mouse) (UniProt P09581)
T1 sequence: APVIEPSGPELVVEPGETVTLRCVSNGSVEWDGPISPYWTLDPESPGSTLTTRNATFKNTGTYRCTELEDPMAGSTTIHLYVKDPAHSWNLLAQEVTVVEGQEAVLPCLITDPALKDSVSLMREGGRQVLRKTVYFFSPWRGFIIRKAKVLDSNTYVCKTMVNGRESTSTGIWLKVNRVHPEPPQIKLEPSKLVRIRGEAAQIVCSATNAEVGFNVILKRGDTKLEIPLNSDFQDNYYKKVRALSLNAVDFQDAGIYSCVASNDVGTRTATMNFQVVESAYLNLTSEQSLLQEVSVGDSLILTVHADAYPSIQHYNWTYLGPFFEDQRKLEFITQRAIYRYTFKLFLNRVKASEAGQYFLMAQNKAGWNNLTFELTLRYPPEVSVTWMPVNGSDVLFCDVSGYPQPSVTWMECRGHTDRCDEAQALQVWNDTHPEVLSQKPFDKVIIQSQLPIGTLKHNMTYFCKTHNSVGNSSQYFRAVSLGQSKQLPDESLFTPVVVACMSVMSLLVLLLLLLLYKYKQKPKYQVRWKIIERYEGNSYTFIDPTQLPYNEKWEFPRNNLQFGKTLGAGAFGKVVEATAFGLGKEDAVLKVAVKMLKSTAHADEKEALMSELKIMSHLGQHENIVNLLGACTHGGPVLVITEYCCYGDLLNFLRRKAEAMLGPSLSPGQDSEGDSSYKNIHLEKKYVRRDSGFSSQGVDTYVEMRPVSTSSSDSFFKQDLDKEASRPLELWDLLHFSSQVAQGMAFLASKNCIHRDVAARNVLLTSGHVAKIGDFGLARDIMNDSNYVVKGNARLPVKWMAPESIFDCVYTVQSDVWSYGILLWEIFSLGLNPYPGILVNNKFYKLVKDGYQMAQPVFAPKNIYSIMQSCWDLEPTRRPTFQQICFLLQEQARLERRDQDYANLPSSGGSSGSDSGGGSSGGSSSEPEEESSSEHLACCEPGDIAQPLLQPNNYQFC

T2: specific receptors for CSF-1 on J774.2 mouse macrophage cells (mouse, UniProt P09581)
T2 sequence: T1 sequence

B1: SCSF, expression product of pcCSF-17 (short form of human CSF-1) (ligand)
chain: EEVSEYCSHMIGSGHLQSLQRLIDSQMETSCQITFEFVDQEQLKDPVCYLKKAFLLVQYIMEDTMRFRDNTPNAIAIVQLQELSLRLKSCFTKDYEEHDKACVRTFYETPLQLLEKVKNVFNETKNLLDKDWNIFSKNCNNSFAECSSQGHERQSEGSSSPQLQESVFHLLVPSVILVLLAVGGLLFYRWRRRSHQEPQRADSPLEQPEGSPLTQDDRQVELPV
B2: expression product of pCSF-Bam: 158 amino acids of CSF-1 fused to six vector-derived residues (ligand)
chain: EEVSEYCSHMIGSGHLQSLQRLIDSQMETSCQITFEFVDQEQLKDPVCYLKKAFLLVQYIMEDTMRFRDNTPNAIAIVQLQELSLRLKSCFTKDYEEHDKACVRTFYETPLQLLEKVKNVFNETKNLLDKDWNIFSKNCNNSFAECSSQGHERQSEGSRHDKIH
B3: SCSF/C∇158, expression product of pCSF-BamBcl (ligand)
chain: EEVSEYCSHMIGSGHLQSLQRLIDSQMETSCQITFEFVDQEQLKDPVCYLKKAFLLVQYIMEDTMRFRDNTPNAIAIVQLQELSLRLKSCFTKDYEEHDKACVRTFYETPLQLLEKVKNVFNETKNLLDKDWNIFSKNCNNSFAECSSQGHERQSEGS
B4: SCSF/C∇158, expression product of pCSF-BamTGA (ligand)
chain: B3 chain
B5: SCSF/C∇150, expression product of pCSF-Gly150 (ligand)
chain: EEVSEYCSHMIGSGHLQSLQRLIDSQMETSCQITFEFVDQEQLKDPVCYLKKAFLLVQYIMEDTMRFRDNTPNAIAIVQLQELSLRLKSCFTKDYEEHDKACVRTFYETPLQLLEKVKNVFNETKNLLDKDWNIFSKNCNNSFAECSSQG

Columns and labels:
[1] = molecular target: T1, specific receptors for CSF-1 on J774.2 mouse macrophage cells (mouse)
[2] = molecular target: T1, specific receptors for CSF-1 on J774.2 mouse macrophage cells (mouse); remark: listed apart in the source
[3] = molecular target: rabbit antisera raised against human urinary CSF-1; assay: radioimmunoassay using anti-CSF antibodies, COS-A2 supernatant; first of three values
[4] = molecular target: T1, specific receptors for CSF-1 on J774.2 mouse macrophage cells (mouse); assay: radioreceptor assay: competition with 125I-labelled CSF-1 for receptors on J774.2 mouse macrophage cells; MIAPaCa supernatant as standard
[5] = molecular target: "Rabbit 52" polyclonal antiserum raised against purified human urinary CSF-1; assay: radioimmunoassay: competition with 125I-labelled MIAPaCa CSF-1 for Rabbit 52 antiserum; medium of SV40-infected CV-1 cells
[6] = molecular target: T2, specific receptors for CSF-1 on J774.2 …; assay: cell-based or functional assay
[7] = molecular target: rabbit antisera raised against human urinary CSF-1; assay: radioimmunoassay using anti-CSF antibodies, COS-A2 supernatant

| Molecule | Bone Marrow Assay, Colony (units/ml) [2] | Bone Marrow Assay, Proliferation (units/ml) [2] | Radioimmunoassay (units/ml) [3] | other results |
| --- | --- | --- | --- | --- |
| asp59 SCSF/C∇150, expression product of pCSF-asp59-gly150 (ligand) |  |  |  | Mouse Bone Marrow Colony Assay, Colony Forming Units/ml (Colony Forming Units/ml) [1]: 131000 |
| asp59 SCSF/C∇158, expression product of pCSF-asp59-BamBcl (ligand) |  |  |  | Mouse Bone Marrow Colony Assay, Colony Forming Units/ml (Colony Forming Units/ml) [1]: 72000 |
| asp59 SCSF, expression product of pCSF-asp59 (ligand) | 9000 units/ml | 3380 units/ml |  |  |
| pro52 SCSF, expression product of pCSF-pro52 (ligand) | < 100 units/ml | < 25 units/ml |  |  |
| gln52 SCSF, expression product of pCSF-gln52 (ligand) | 6210 units/ml | 2970 units/ml |  |  |
| B1 | 11100 units/ml | 2800 units/ml | 3130 units/ml | CSF-1 concentration by radioreceptor assay [4]: 2470 U/ml and 3240 U/ml; CSF-1 by radioimmunoassay (U/ml) [5]: 2340 U/ml |
| B2 |  |  | 9600 units/ml | Bone Marrow Assay, Colony (units/ml) [6]: 22600 units/ml |
| B3 |  |  | 8800 units/ml |  |
| B4 |  |  | 8450 units/ml |  |
| B5 |  |  |  | Radioimmunoassay (units/ml) [7]: 26800 units/ml; Bone Marrow Assay, Colony (units/ml) [6]: 55700 units/ml |
